In the RNAGym collection of RNA variant scans (doi:10.7554/elife.80360):

B1: HDV Ribozyme (parent)
chain: GGCCGGCAUGGUCCCAGCCUCCUCGCUGGCGCCGGCUGGGCAACAUUCCGAGGGGACCGUCCCCUCGGUAAUGGCGAAUGGGACCCA

Variants of: B1
Experiment: self-cleavage, relative activity (ratio to wild type); higher = more cleavage; co-transcriptional

Variant | self-cleavage
GGCCGGCAUGGUCUCAGCCUCCUCGCUGGCGCCGGCUGGGCAUCAUUCCGAGGGGACCGUCCCCUCGGUAAUGGCGAAUGGGACCCA [C14U A43U] | 0.443
GGCCGGCAUGGUCGCAGCCUCCUCGCUGGCGCCGGCUGGGCAACAUUCCGAGGGGACCGUCCCCUCGAUAAUGGCGAAUGGGACCCA [C14G G68A] | 0.431
GGCCGGCAUGGUCUCAGCCUCCUCGCUGGCGCCGGCUGGGCAACAUUCCGAGGGGACCGUCCCCUCGGUUAUGGCGAAUGGGACCCA [C14U A70U] | 1.08
GGCCGGCAUGGUCUCAGCCUCCUCGCUGGCGCCGGCUGGGCAACAUUCCGAGGGGACCGUCCCCUCGGUCAUGGCGAAUGGGACCCA [C14U A70C] | 1.02
GGCCGGCAUGGUCUCAGCCUCCUCGCUGGCGCCGGCUGGGCAACAUUCCGAGGGGACCGUCCCCUCGGUGAUGGCGAAUGGGACCCA [C14U A70G] | 0.931
GGCCGGCAUGGUCUCAGCCUCCUCGCUGGCGCCGGCUGGGCAACCUUCCGAGGGGACCGUCCCCUCGGUAAUGGCGAAUGGGACCCA [C14U A45C] | 0.646
GGCCGGCAUGGUCGCAGCCUCCCCGCUGGCGCCGGCUGGGCAACAUUCCGAGGGGACCGUCCCCUCGGUAAUGGCGAAUGGGACCCA [C14G U23C] | 0.712
GGCCGGCAUGGUCGCAGCCUCCGCGCUGGCGCCGGCUGGGCAACAUUCCGAGGGGACCGUCCCCUCGGUAAUGGCGAAUGGGACCCA [C14G U23G] | 0.453
GGCCGGCAUGGUCGCAGCCUCCUCGCUGGCGCCGGCUGGGCAACAUUCCGAGGGGACCGUCCCCUCGGUAAUGGCGAAUAGGACCCA [C14G G80A] | 0.346
GGCCGGCAUGGUCUCAGCCUCCUCGCUGGCGCCGGCUGGGCCACAUUCCGAGGGGACCGUCCCCUCGGUAAUGGCGAAUGGGACCCA [C14U A42C] | 0.232
GGCCGGCAUGGUCUCAGCCUCCUCGCUGGCGCCGGCUGGGCUACAUUCCGAGGGGACCGUCCCCUCGGUAAUGGCGAAUGGGACCCA [C14U A42U] | 0.587
GGCCGGCAUGGUCGCAGCCUCCUCGCUGGCUCCGGCUGGGCAACAUUCCGAGGGGACCGUCCCCUCGGUAAUGGCGAAUGGGACCCA [C14G G31U] | 0.0386
GGCCGGCAUGGUCGCAGCCUCCUCGCUGGCACCGGCUGGGCAACAUUCCGAGGGGACCGUCCCCUCGGUAAUGGCGAAUGGGACCCA [C14G G31A] | 0.324
GGCCGGCAUGGUCGCAGCCUCCUCGCUGGCGCCGGCUGGACAACAUUCCGAGGGGACCGUCCCCUCGGUAAUGGCGAAUGGGACCCA [C14G G40A] | 0.623
GGCCGGCAUGGUCGCAGCCUCCUCGCUGGCGCCGGCUGGCCAACAUUCCGAGGGGACCGUCCCCUCGGUAAUGGCGAAUGGGACCCA [C14G G40C] | 0
GGCCGGCAUGGUCGCAGCCUCCUCGCUCGCGCCGGCUGGGCAACAUUCCGAGGGGACCGUCCCCUCGGUAAUGGCGAAUGGGACCCA [C14G G28C] | 0.0415
GGCCGGCAUGGUCGCAGCCUCCUCGCUGGCGCCGGCUUGGCAACAUUCCGAGGGGACCGUCCCCUCGGUAAUGGCGAAUGGGACCCA [C14G G38U] | 0.106
GGCCGGCAUGGUCGCAGCCUCCUCGCUGGCGCCUGCUGGGCAACAUUCCGAGGGGACCGUCCCCUCGGUAAUGGCGAAUGGGACCCA [C14G G34U] | 0.0594
GGCCGGCAUGGUCGCAGCCUCCUCGCUGGCGCCCGCUGGGCAACAUUCCGAGGGGACCGUCCCCUCGGUAAUGGCGAAUGGGACCCA [C14G G34C] | 0.138
GGCCGGCAUGGUCGCAGCCUCCUCUCUGGCGCCGGCUGGGCAACAUUCCGAGGGGACCGUCCCCUCGGUAAUGGCGAAUGGGACCCA [C14G G25U] | 0.0504
GGCCGGCAUGGUCGCAGCCUCCUCCCUGGCGCCGGCUGGGCAACAUUCCGAGGGGACCGUCCCCUCGGUAAUGGCGAAUGGGACCCA [C14G G25C] | 0
GGCCGGCAUGGUCGCAGCCUCCUCGCUGGCGCCGGCUGGGCAACAUGCCGAGGGGACCGUCCCCUCGGUAAUGGCGAAUGGGACCCA [C14G U47G] | 0.383

Variant | self-cleavage
GGCCGGCAUGGUCGCAGCCUCCUCGCUGGCGCCGGCUGGGCAACAUCCCGAGGGGACCGUCCCCUCGGUAAUGGCGAAUGGGACCCA [C14G U47C] | 0.604
GGCCGGCAUGGUCUCAGCCUCCUCGCUGGCGCCGGCUGGGCAACAUUCCGUGGGGACCGUCCCCUCGGUAAUGGCGAAUGGGACCCA [C14U A51U] | 1.14
GGCCGGCAUGGUCGCAGCCUCCUCGCUGGCGCCGGCUGGGCAACAUUCCGAGGGGACCGUCCCCUCGGUAAUGGCGAAAGGGACCCA [C14G U79A] | 0.266
GGCCGGCAUGGUCGCAGCCUCCUCGCUGGCGCCGGCUGGGCAACAUUCCGAGGGAACCGUCCCCUCGGUAAUGGCGAAUGGGACCCA [C14G G55A] | 0.59
GGCCGGCAUGGUCGCAGCCUCCUCGCUGGCGCCGGCUGGGCAACAUUCCGAGGGCACCGUCCCCUCGGUAAUGGCGAAUGGGACCCA [C14G G55C] | 0.665
GGCCGGCAUGGUCGCAGCCUCCUCGCUGGCGCCGGCUGGGCAACAUUCCGAGGGUACCGUCCCCUCGGUAAUGGCGAAUGGGACCCA [C14G G55U] | 0.682
GGCCGGCAUGGUCGCAGCCUCCUCGCUGGCGCCGGCUGGGCAACAUUCCGAGGCGACCGUCCCCUCGGUAAUGGCGAAUGGGACCCA [C14G G54C] | 0.277
GGCCGGCAUGGUCGCAGCCUCCUCGCUGGCGCCGGCUGGGCAACAUUCCGAGGUGACCGUCCCCUCGGUAAUGGCGAAUGGGACCCA [C14G G54U] | 0.776
GGCCGGCAUGGUCGCAGCCUCCUCGCUGGCGCCGGCUGGGCAACAUUCCGAGGAGACCGUCCCCUCGGUAAUGGCGAAUGGGACCCA [C14G G54A] | 0.639
GGCCGGCAUGGUCGCAGCCUCCUCGCUGGCGCCGGCGGGGCAACAUUCCGAGGGGACCGUCCCCUCGGUAAUGGCGAAUGGGACCCA [C14G U37G] | 0
GGCCGGCAUGGUCGCAGCCUCCUCGCUGGCGCCGGCUGGGCAACAUUCCGAGGGGACCGUCCCCUCGGUAAUGGCGAAUGUGACCCA [C14G G81U] | 0.923
GGCCGGCAUGGUCGCAGCCACCUCGCUGGCGCCGGCUGGGCAACAUUCCGAGGGGACCGUCCCCUCGGUAAUGGCGAAUGGGACCCA [C14G U20A] | 0
GGCCGGCAUGGUCGCAGCCCCCUCGCUGGCGCCGGCUGGGCAACAUUCCGAGGGGACCGUCCCCUCGGUAAUGGCGAAUGGGACCCA [C14G U20C] | 0.0554
GGCCGGCAUGGUCGCAGCCUCCUCGCUGGCGCCGGCUGGGCAACAGUCCGAGGGGACCGUCCCCUCGGUAAUGGCGAAUGGGACCCA [C14G U46G] | 0.237
GGCCGGCAUGGUCGCAGCCUCCUCGCUGGCGCCGGCUGGGCAACAAUCCGAGGGGACCGUCCCCUCGGUAAUGGCGAAUGGGACCCA [C14G U46A] | 0.237
GGCCGGCAUGGUCGCAGCCUCCUCGCUGGCGCCGGCUGGGCAACAUUCCGAUGGGACCGUCCCCUCGGUAAUGGCGAAUGGGACCCA [C14G G52U] | 0.391
GGCCGGCAUGGUCGCAGCCUCCUCGCUGACGCCGGCUGGGCAACAUUCCGAGGGGACCGUCCCCUCGGUAAUGGCGAAUGGGACCCA [C14G G29A] | 0.107
GGCCGGCAUGGUCGCAGCCUCCUCGCUGGCGCCGGCUGGGCAACAUUCCGAGGGGACCCUCCCCUCGGUAAUGGCGAAUGGGACCCA [C14G G59C] | 0.969
GGCCGGCAUGGUCUCAGCCUCCUCGCUGGCGCCGGCUGGGCAACAUUCCGAGGGGACCGUCCCCUCGGUAAUGGCGAAUGGGACCCA [C14U] | 1.09
GGCCGGCAUGGUCUCAGCCUCCUCGCUGGCGCCGGCUGGGCAACAUUCCGAGGGGCCCGUCCCCUCGGUAAUGGCGAAUGGGACCCA [C14U A56C] | 1.44
GGCCGGCAUGGUCUCAGCCUCCUCGCUGGCGCCGGCUGGGCAACAUUCCGAGGGGUCCGUCCCCUCGGUAAUGGCGAAUGGGACCCA [C14U A56U] | 1.22
GGCCGGCAUGGUCGCAGCCUCCUCGCUGGCGCCGGCUGGGCAACAUUCCGAGGGGACCGUCCCCUCCGUAAUGGCGAAUGGGACCCA [C14G G67C] | 0.554

Variant | self-cleavage
GGCCGGCAUGGUCGCAGCCUCCUCGCUGGCGCCGGCUGGGCAACAUUCCGAGGGGACCGGCCCCUCGGUAAUGGCGAAUGGGACCCA [C14G U60G] | 0.511
GGCCGGCAUGGUCGCAGCCUCCUCGCAGGCGCCGGCUGGGCAACAUUCCGAGGGGACCGUCCCCUCGGUAAUGGCGAAUGGGACCCA [C14G U27A] | 0.7
GGCCGGCAUGGUCGCAGCCUCCUCGCUGGCGCCGGCUGUGCAACAUUCCGAGGGGACCGUCCCCUCGGUAAUGGCGAAUGGGACCCA [C14G G39U] | 0.237
GGCCGGCAUGGUCGCAGCCUCCUCGCUGGCGCCGGCUGAGCAACAUUCCGAGGGGACCGUCCCCUCGGUAAUGGCGAAUGGGACCCA [C14G G39A] | 0.277
GGCCGGCAUGGUCGCAGCCUCCUCGCUGGCGCCGGCUGCGCAACAUUCCGAGGGGACCGUCCCCUCGGUAAUGGCGAAUGGGACCCA [C14G G39C] | 0.217
GGCCGGCAUGGUCGCAGCCUCCUCGCUGGCGCCGGCUGGGCAACAUUCCGAGGGGACCGUCCCCUCGGUAAUGGCGAAUGGUACCCA [C14G G82U] | 0.196
GGCCGGCAUGGUCGCAGCCUCCUCGCUGGCGCCGGCUGGGCAACAUUCCGAGGGGACCGUCCCCUCGGUAAUGGCGAAUGGCACCCA [C14G G82C] | 0.525
GGCCGGCAUGGUCGCAGCCUCCUCGCUGGCGCCGGCUGGGCAACAUUCCGAGGGGACCGUCCCCUCGGUAAUGGCGAAUGGAACCCA [C14G G82A] | 0.158
GGCCGGCAUGGUCGCAGCCUCCUCGCUGGCGCCGGCUGGGCAACAUUCCGAGGGGACCGUCCCCUCGGUAAUGGCUAAUGGGACCCA [C14G G76U] | 0.985
GGCCGGCAUGGUCGCAGCCUCCUCGCUGGCGCCGGCUGGGCAACAUUCCGAGGGGACCGUCCCCUCGGUAAUGGCCAAUGGGACCCA [C14G G76C] | 0.731
GGCCGGCAUGGUCGCAGCCUCCUCGCUGGCGCCGGCUGGGCAACAUUCCGAGGGGACCGUCCCCUCGGUAAUGGCAAAUGGGACCCA [C14G G76A] | 0.831
GGCCGGCAUGGUCGCAGCCUCCUCGCUGGCGCCGGCUGGGCAACAUUCCGAGAGGACCGUCCCCUCGGUAAUGGCGAAUGGGACCCA [C14G G53A] | 0.86
GGCCGGCAUGGUCGCAGCCUCCUCGCUGGCGCCGGCUGGGCAACAUUCCAAGGGGACCGUCCCCUCGGUAAUGGCGAAUGGGACCCA [C14G G50A] | 1.15
GGCCGGCAUGGUCGCAGCCUCCUCGCUGGCGCCGGCUGGGCAACAUUCCUAGGGGACCGUCCCCUCGGUAAUGGCGAAUGGGACCCA [C14G G50U] | 0.639
GGCCGGCAUGGUCGCAGCCUCCUCGCUGGCGCCGGCUGGGCAACAUUCCGAGGGGACCGUCCCCUCGGUAAGGGCGAAUGGGACCCA [C14G U72G] | 0.312
GGCCGGCAUGGUCGCAGCCUCCUCGCUGGCGCCGGCUGGGCAACAUUCCGAGGGGACCGUCCCCUCGGUAACGGCGAAUGGGACCCA [C14G U72C] | 0.0978
GGCCGGCAUGGUCGCAGCCUCCUCGCUGGCGCCGGCUGGGCAACAUUCCGAGGGGACCGUCCCCUCGGUAAAGGCGAAUGGGACCCA [C14G U72A] | 0.383
GGCCGGCAUGGUCUCUGCCUCCUCGCUGGCGCCGGCUGGGCAACAUUCCGAGGGGACCGUCCCCUCGGUAAUGGCGAAUGGGACCCA [C14U A16U] | 1.09
GGCCGGCAUGGUCUCCGCCUCCUCGCUGGCGCCGGCUGGGCAACAUUCCGAGGGGACCGUCCCCUCGGUAAUGGCGAAUGGGACCCA [C14U A16C] | 1.07
GGCCGGCAUGGUCGCAGCCUCCUCGCUGGCGCCGGCUGGGCAACAUUCCGAGGGGACCGUCCCCUCGGCAAUGGCGAAUGGGACCCA [C14G U69C] | 0.519
